Assay: soluble on expression in E. coli; label from the status in PepcDB or PDB records

Sequence | soluble on expression in E. coli
MTILSVSPNKREDLSMKRKIALAMVLAMTASMAQPVLAADSKTTLDVIISQYGTQTQTWWTQFEKDFEAENPDIDLNVEIVSWNDLYTKVNTLVANNNAPDILNIDVLADYVADDLLMPATEYASEDLQAKFFPAFWEASTIDDTVYALPILASCRALFYNKDILDEAGATVPTTWAEVQETAQKIKDKFGDDVYPWGIDMTTDEGQAAFSYYTWNNGGGFVDENGDWALNSDKNVEALNFAIGLVNDGYTNSDPANETRYDLQDMFGAGKVAMMIGPNNIPTYLSDGGYDINYDVTTIPANEGCDSVAMGVCDRLEVFKDDSAEDQEARTAAISKFFDFFYDDERYADYMVFEGFLPTTQTAADLLAKDDDTFASWIDILQSCNFYPATKTEWADVKQGVIEVEQNALLGDDVQTLLDDLQADIAG | not soluble
MGSDKIHHHHHHMVNKFTQFLVAFISLWMLHSCSGPQKEYVLKVKLNKLTQKDMYEYNLVKDVIFDAQELNVDSIKARSRESFLKGVDEYKNKHNAAAAVPLFKQSILTFPDAKTYYELGNALMELNTEASLDESIKAYRVAEELDIKPIASVYYKMACAQNMIGTLKKSDEDEYMVISYLRKSFINGFYDTLTLAKDTRINSILSTMSYKTLLRELESFKYKEDRNGLFELFKQAYPRPVEFEAALTDLTQYENKESISYDFAVFVPEMQNTEFGREVSNDFFYNALVQETPAYTALIYTSVSFWGDHDALMPSFTSLVTYDPMGIIIDRKLIACQCSAEKVKTVKIKDNKVYVEDFKRIWKQPIDKVSFDDNEVDKFESLAKLTYTINEDGTIQASEIPANYMDTVITKDQSKNTPQ | not soluble
MSLNPSESRSIAALREIVESARPLSYIRSSEEQRVERLLKDAAQRFFSTKVPVWTWSLTEGLRCDDGAVDASASDPRAALDFIAAYQGPALFHLKDFHEPLRERADIRRRLRDLYGACFDQGKFVVISSPVRYIPEELGRSIMYIELTLPDLAELIGFLREEVHAVKALGGSADTDDATLTQIARALQGLTLDESRHAIRRALAAGGGLGADSLPALYEEKRLLVNRTGMIQYVADGTQIASVGGLEIMKKWLMERRELFQLRDSISAEIVPKGVLIMGVSGCGKSLSVKAIASAFGLPLYRIDMTEIFSGRHGSAEGAFVSACRMLEQIAPAVVWFDEIEMGVNSTESAGEQGRIFAFFLTWMQEKTSGLFVAATANRIDLLPAEMTRKGRFDEIFFVDLPLDDERVEIFRIHLERRGIDTTPFDLTRLIKITKGWVGAEVEQCVVSALTTAHLDNREVTVEDLLRAAGKIVPLSKTMKEQVDHIRSWAYNRAVRASEGHHHHHH | soluble
GPLGSMDAKARNCLLQHREALEKDIKTSYIMDHMISDGFLTISEEEKVRNEPTQQQRAAMLIKMILKKDNDSYVSFYNALLHEGYKDLAALLHDGIPVVSSS | soluble
MGSDKIHHHHHHAVTTGNTPVTAEFAGGTLPDGNGVPNTVDPDPTKPNSNFDLLFIPREYDFGKLSISDDLTKPIPNKTDEGRAGNVESVGVGDIRGSKEGWHVTAQSTGMKLGEESLEGSITTGAMFLYPLIYNEETKTYDYQSADLADPVTKPETVDTTAFSIALGGDAVLLANATAGKGQGLWQFSFRPYLNITTPAYNIKAGAYTGNITWNLVAGPSI | not soluble
MASCHEPSAFKSLCAHPSTLTATFDVSPYSSAFHLPIHPALLSNTHLLHLNTYNPTTYESTERLFEQNNNNSEKAESCSSRDSSHDSSSPTSTGGSSRDNVIVRNELKRKKDQVKDVAYWERRRKNNDAAKRSRDQRRMKEDEMAHRATSLERENMLLRVELDQLRAETDKLRALILTTPTTSISIPIPLQSLPLLTAQTAPASSVITTSQMYAPLPLKIPKTPSPSLLRSTVLVSNSSKT | not soluble
MSNEPESTQHKSALQGLKGYLSSQILGQEKLVDRLLIALLADGHLLVEGAPGLAKTKAIKDLAEGLEAEFHRIQFTPDLLPADITGTEIYRPETGTFVFQQGPIFHHLVLADEINRAPAKVQSALLEAMAERQVSVGRSTYDLPQLFLVMATQNPIEQEGTYPLPEAQLDRFLMHVKIGYPEASVERRILQQARGEALNGEARPERRVTQETIFAARQEILGLYMADAVEEYLVQLIMATRTPAKHDAELAEWISYGASPRGSIALDRCARAHAWLGGRDFVSPEDIQAVLFDVLRHRLILTFEAEAAGIDQDRVVQRILDVVAVALEHHHHHH | soluble
DGPYLQILEQPKQRGFRFRYVCEGPSHGGLPGASSEKNKKSYPQVKICNYVGPAKVIVQLVTNGKNIHLHAHSLVGKHCEDGVCTVTAGPKDMVVGFANLGILHVTKKKVFETLEARMTEACIRGYNPGLLVHSDLAYLQAEGGGDRQLTDREKEIIRQAAVQQTKEMDLSVVRLMFTAFLPDSTGSFTRRLEPVVSDAIYDSKAPNASNLKIVRMDRTAGCVTGGEEIYLLCDKVQKDDIQIRFYEEEENGGVWEGFGDFSPTDVHRQFAIVFKTPKYKDVNITKPASVFVQLRRKSDLETSEPKPFLYYPEIKDKEEVQRKRQK | soluble
MSLENTEKLKNSKEVIAYIAECFPNCFTLEGEAKPLKIGIFQDLADRLNDDPKVSKTQLRAALRQYTSSWRYLHGVKPGATRVDLDGNPCGELEEQHVEHAQAALAESKARVEARRKEQVKKVREEAKANKPKAKKPQQARRPQNAPKVEKKPVETRALAASELNVGNQVNVNMGKGNMAATIVEVNKEDVRVQLANGLQMVVKAEHLRAEGGSHHHHHH | soluble
MPSSNSVVPPFDARNLEIKTKSIEQTLIPLVTQITTLVNYKESYMASGKPKSERAMRAALKIGSAVEAAIERFVCVGETIADENADIQPEMYDACTEARLAGASMANLSCACNDDPNSVVDKAVLVRASRQLLSSVTRVLLLADRVLVKQVLRAEDKIAFSLSRLESTRSFNDFVKVFAVFGGEMVELAHRSGDRQHDLKSEKRKAQMSIARTSLERLTMLLLTASKTYLRHPDCDSALQCRDGVFYQMKLSLELIAICVCDGILTTEKSRYIQDEPDMPIDIALQLTANAAIKQLTEMLEMIRMTVRVGAGVRERIVSALDALCQLTQDFTDSAYTPHHQREQILDFLEECRFEMTNLIQPDENEQLAASGLEVTVERLNRRLKDLSKQLQIVAMEQISEVLRANEDQVLLSSMKACAVSGDIDGVEKYMHKFREHADHMQEVCRLLHHISITDALHVHTGHVERNMRALAPLTILAGRTLCVHPSSRIARENLEVFCDTWGQAVNDLSRVAKESDVAANGRVAAEKQAYMSLPRPGVSKSSCRRSVPKHDAASSSSSNELLPNGGRHPKQVGIAPTRVVSQTGDEASSDEEQVDKQEIEAFQYRISLIIDDLQSDVEGGTHGR | not soluble
TRINLTLVSELADQHLMAEYRQLPRVFGAVRKHVANGKRVRDFKISPTFILGAGHVTFFYDKLEFLRKRQIELIAECLKRGFNIKDTTVQDISDIPQEFRGDYIPHEASIAISQARLDEKIAQRPTWYKYYGKAIYA | soluble
HEEHLMVPKGVEVYEINGPYFFGIATKFEEIMSELGDRPKVRIVRMRKVPFIDSTGIHNLTNLCEMSKKENIQIVLSGVNEKVHQILEKSGFNELLGKENICPNINVALEKAK | not soluble
MNKQEVILKVQECAAWWILERQSKLTKLMSETMSINPFMTPFIFDYHSLNDFDELVEAIIAKHLMTGHDTGFGKLIDEKILPRVFGAYKLDKSYRAANEPFIHPCFDEIDHVIQRDDGRIELLSLKAGKWTIQLTMAVQLNKAFHEIINNYPGVADNIVVGVFYGNSHGLTDKYRILRGINTGANHNVIDIRDKVHVYAGKEFWSWLNNGEAETQHWVLEGIERAVKEADIKEKNKDLIEKFKEHVAKKYNEQVLNADGTAQWHKLLEMINE | soluble
MAHHHHHHMSTNRVATVVAGLDGANPVKRERHPAWYPPLKLDGNGLKVMNSLTETLEDFAPRDGRVVRWYTCGPTVYDLSHMGHARAYLTFDIIRRIMEDYFGYSVIYQMNITDIDDKIIKRARVNKLLVDFKEEELRHSDVAKLMAFTAEAVAAAESGLAKRKAALVEPIAKGTNSRAKADREEKLLEVQLKESQLVETKVKIAAAKDDFAALFAAASGVNGDLLDERSGHSVSDQQIFEDHARKYERAFFEDMQRLGIREPDIVTRVTEYVPQVVEFVQKIIDNGFAYAGETSVFFDTEAYIRAGHDYPKLKPGGDRNTTEDEMAEGEGVLSKGIEGEKRSPNDFALWKFSKPGEPRWPSPWGEGRPGWHIECSVMASDILGENMDIHSGGWDLKFPHHDNECAQSEACNLHSQWVNYFLHCGHLHIKGLKMSKSLKNFITIRQALDELGVTARTMRLLFLANPWNKPMNFSDQSLDEAKEKERVLRAFFGSVDIVLRADNWKATQGVNKHDRELLSKWVEAEAAVHAALQDNFDTVVALQQLMSLVAATNQYLLSGERPSATLVRKVGCYVTKMFRIFGVVEGSDDVGLQKQGSDDGEARFIEVVNTLVRFRDEVRNAAKDHKVVAGFLPLCDKVRDEWLVDAGVRLEDNPAGPTTWKSDEPALLQKELAERRAQQEGDRQRRLANQAETKRKLVEKWRQFTYPPSEYFRRQDEQRVEKKYTAYDDVTGLPTMTAAGEEVSEKEAKKLSKEQAKYAKSYDEFIGKGGVSWIQEQEAELASMVAELEGSK | not soluble
MIVVKVGGAEGINYEAVAKDAASLWKEGVKLLLVHGGSAETNKVAEALGHPPRFLTHPGGQVSRLTDRKTLEIFEMVYCGLVNKRLVELLQKEGANAIGLSGLDGRLFVGRRKTAVKYVENGKVKVHRGDYTGTVEEVNKALLDLLLQAGYLPVLTPPALSYENEAINTDGDQIAALLATLYGAEALVYLSNVPGLLARYPDEASLVREIPVERIEDPEYLALAQGRMKRKVMGAVEAVKGGVKRVVFADGRVENPIRRALSGEGTVVR | soluble
MKSKYEPLFDKVELPNGVELRNRFVLAPLTHISSNDDGTISDVELPYIEKRSQDVGITINAASNVSDVGKAFPGQPSIAHDSNIEGLKRLATAMKKNGAKALVQIHHGGAQALPELTPDGDVVAPSPISLKSFGQKQEHSAREMTNEEIEQAIKDFGEATRRAIEAGFDGVEIHGANHYLIHQFVSPYYNRRNDVWANQYKFPVAVIEEVLKAKEAYGNKDFIVGYRLSPEEAESPGITMEITEELVNKISHMPIDYIHVSMMDTHATTREGKYAGQERLPLIHKWINGRMPLIGIGSIFTADEALDAVENVGVDLVAIGRELLLDYQFVEKIKDGREDEIINYFDPEREDNHHLTPNLWHQFNEGFYPLPRKDK | not soluble
MGHHHHHHSHMVYPEEPFWVLPTVTGFYEDRDYRVNVVEALQEFWQMKQSRGAELKNGALVIYESIPSNSQPYICFVTLPGGSCFGSFQNCPTKAEARRSSAKIALMNSVFNEHPSRRISDEFIQKAVQDARTSFKGTSQINEGTESGIGAFRFMLEANKGRTMLEFQELMTVFQLLHWNGSLKAMRERHCSRQEVVAHYSNRSLDDEMRSQMALDWIAREHDNPGVIRRELVLAERELETFRMAGRELRFPKEKKDILMIAHNQLGGSALNSATIDD | not soluble
MSFCSFFGGEVFQNHFEPGVYVCAKCSYELFSSHSKYAHSSPWPAFTETIHPDSVTKCPEKNRPEALKVSCGKCGNGLGHEFLNDGPKRGQSRFCIFSSSLKFVPKGKEAAASQGHLEHHHHHH | soluble
MGSDKIHHHHHHMTEIATIEKPAQHGATTRLIDIVFPGDTNHHGTLFGGTGLALMDRVAFIAATRFGRTPFVTASCERIDFRQPARIGHIVEFTARPVKAGRRSLTVEVEMVAETIIGRQQHTCTRGIFHMVAIPEGEDAASYVLPELLTEETPDPSDAVTMVEIVFPDQANSAGRMFGGEAIAYMTKAAFVAASRYCGKLVVLASSERIDFARAIEIGEIVEAQAHVERVGRSSMSIQTKLWSENLLTGERHITATGHFTMVAVDKDHRPATIRDPAEAFSLEKGGA | soluble
